Assays:
[1] = target: poly-specificity reagent (PSR); test: flow cytometry PSR assay: test article on Protein A beads, biotinylated PSR, read-out with SA-PE
[2] = target: poly-specificity reagent (PSR); test: PSR assay: protein on protein A coated beads, biotinylated PSR, SA-PE, flow cytometry; + PSR panel (Q2 is 0 in the No PSR panel FIG. 43E)
[3] = target: poly-specificity reagent (PSR); test: flow cytometry PSR assay: test article on protein A beads, biotinylated PSR detected with streptavidin-PE

% of events in Q2 (Expression-FITC positive, Binding-PE positive), + PSR [1] [%]	% of beads in quadrant Q2 (Binding-PE positive), + PSR [2] [%]	% of events in Q2 (Expression-FITC positive, Binding-PE positive), + PSR [3] [%]	Substance
79.6			Ixekizumab (antibody)
	27.1		Ixekuzumab (antibody)
0.087		0.067	trastuzumab (antibody)
56.2			Rituximab (antibody)
		79.6	Ixekizumab (PSR positive control) (antibody)
